Test results: publication PMC5879082, “PutA Is Required for Virulence and Regulated by PruR in Pseudomonas aeruginosa”

T1: rPruR (AraC/XylS family regulator) (Pseudomonas aeruginosa PAK) (UniProt Q9I5F8)
T1 sequence: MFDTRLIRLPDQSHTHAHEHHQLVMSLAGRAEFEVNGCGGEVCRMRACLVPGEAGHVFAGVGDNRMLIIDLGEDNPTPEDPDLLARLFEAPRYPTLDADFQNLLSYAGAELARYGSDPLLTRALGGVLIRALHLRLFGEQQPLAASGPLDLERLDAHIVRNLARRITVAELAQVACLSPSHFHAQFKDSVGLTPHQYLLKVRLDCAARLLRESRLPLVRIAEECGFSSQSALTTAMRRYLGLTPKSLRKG

T2: rPruR (AraC/XylS family regulator) (Pseudomonas aeruginosa PAK, UniProt Q9I5F8 1-250)
T2 sequence: T1 sequence

B1: putA promoter F6 (dsDNA)
DNA 1: TTCCGCAGCCAGGAGTTTTCCGCAAAAACTCCAGAGTCTTTCGCAAGAATCGC
DNA 2: GCGATTCTTGCGAAAGACTCTGGAGTTTTTGCGGAAAACTCCTGGCTGCGGAA

What was measured:
[1] = target: T1, rPruR (AraC/XylS family regulator) (Pseudomonas aeruginosa PAK); test: EMSA; conditions: 50 mM Tris pH 7.9, 50 mM NaCl, 0.5 mM EDTA, 10% glycerol, 1% NP-40, 25 C, 10 min; 50 ng DNA, 2 ug rPruR in 20 ul; 8% native PAGE in TBE on ice (EMSA) …
[2] = target: T2, rPruR (AraC/XylS family regulator); test: EMSA; 50 mM Tris pH 7.9, 50 mM NaCl, 0.5 mM EDTA, 10% glycerol, 1% NP-40, 25 C, 10 min; 50 ng DNA, 2 ug rPruR in 20 ul; 8% native PAGE in TBE on ice (EMSA); footprint 300 ng probe, 0.09 U DNase I, 25 C 5 min; conditions: protein: recombinant; tags: His tag (pET-28a(+)); blunt

Molecule | binding [1] | binding result [2]
CCCTCTCGCAGCCACTACATTCCGCTATCCGCTGGTGCCTCGCGCCGGCGGAATGGGCCTGACCCATACTGATCCGTATTCCCGCGCCACAGGACGTGCCGCGCCGCCGGCACAACCCGCCGGCGGCGGTGCCCCGGGCAATGGACGCCTGGCCGGACTTCTTTCAATAACAATGGCTCCACAAGAGGAGGGCGTG (double strand) [putA promoter F3] | no binding | 
CTTTCCCGTTCCTCTTCGCCGGCAGGCATGCGGACATTGCCGCTGCACGTCGGCACGACGCCATGCAGAGTGGCTACGCGGGTCTACCGACACAAAAAGAAATAATATAACATCCCAATAAATACGCCGAT (double strand) [putA promoter F5] | no binding | 
B1 |  | binds
